Test results from patent US20240272170A1 (QUANTUM SI, published 2024).
Positions count from the first letter of the chain named. In names and notes the source's numbering stands. No end group written: not given here. *: point of attachment. FITC = O=C1OC2(c3ccc(O)cc3Oc3cc(O)ccc32)c2ccc(NC(=S)*)cc21

T1: RL peptide (Octet assay of PS621 variants)
T1 construct: RXKLDEESILKQK with X = L
T1 peptide: RLKLDEESILKQK

T2: RE peptide (Octet assay of PS621 variants)
T2 construct: RXKLDEESILKQK with X = E
T2 peptide: REKLDEESILKQK

T3: RS peptide (Octet assay of PS621 variants)
T3 construct: RXKLDEESILKQK with X = S
T3 peptide: RSKLDEESILKQK

T4: HA peptide (Octet assay of PS621 variants)
T4 construct: XAKLDEESILKQK with X = H
T4 peptide: HAKLDEESILKQK

T5: KA peptide (Octet assay of PS621 variants)
T5 construct: XAKLDEESILKQK with X = K
T5 peptide: KAKLDEESILKQK

T6: RA peptide (XAKLDEESILKQK-FITC, X = R)
T6 construct: also called peptide with N-terminal arginine
T6 peptide: RAKLDEESILKQK(FITC)

T7: HA peptide (XAKLDEESILKQK-FITC, X = H)
T7 construct: also called peptide with N-terminal histidine
T7 peptide: HAKLDEESILKQK(FITC)

T8: LA Peptide (fluorescence polarization)
T8 peptide: LAKLDEESILKQK(FITC)

T9: AA Peptide (fluorescence polarization), AAKLDEESILKQ{LYS(FITC)}
T9 peptide: AAKLDEESILKQK(FITC)

T10: MA Peptide (fluorescence polarization)
T10 peptide: MAKLDEESILKQK(FITC)

B1: PS1104 (designed binder)
chain: MHSKFSHAGRICGAKFKVGEPIYRCKECSFDDTCVLCVNCFNPKDHRGHHVYTTICTEFNNGICDCGDKEAWNHTLFCKAEEG
notes: Variant of PS621
B2: PS1119 (designed binder)
chain: B1 chain with R47T, T57K
notes: Variant of PS621
B3: PS1103 (designed binder)
chain: B1 chain with D32Y, R47T
notes: Variant of PS621
B4: PS1120 (designed binder)
chain: B1 chain with R47T, T54K
notes: Variant of PS621
B5: PS1105 (designed binder)
chain: B1 chain with R47T, G48R
notes: Variant of PS621
B6: PS1101 (designed binder)
chain: B1 chain with G19R, R47T
notes: Variant of PS621
B7: PS1107 (designed binder)
chain: B1 chain with R47T, T57R
notes: Variant of PS621
B8: PS1118 (designed binder)
chain: B1 chain with R47T, E58K
notes: Variant of PS621
B9: PS1102 (designed binder)
chain: B1 chain with S29Q, R47T
notes: Variant of PS621
B10: PS1104 (designed binder)
chain: B1 chain
notes: PS621 variant
B11: PS1114 (designed binder)
chain: B1 chain with F59R
notes: PS621 variant
B12: PS1121 (designed binder)
chain: B1 chain with R47K
notes: PS621 variant
B13: PS1115 (designed binder)
chain: B1 chain with F59R, T75E
notes: PS621 variant
B14: PS1106 (designed binder)
chain: B1 chain with R47T, T53V
notes: PS621 variant
B15: PS857 (designed binder)
chain: MPTAASATESAIEDTPAPARPEVDGRTKPKRQPRYHVVLWDDDDHTYQYVVVMLQSLFGHPPERGYRMAKEMDTQGRVIVLTTTREHAELKRDQIHAFGYDRLLARSKGSMKASIEAEE
notes: Variant of PS557; also called N41D, V72M, L68M
B16: PS769 (designed binder)
chain: B15 chain with M68L, M72V
notes: Variant of PS557; also called N41D
B17: PS816 (designed binder)
chain: B15 chain with M68L
notes: Variant of PS557; also called N41D, V72M
B18: PS968 (designed binder)
chain: B15 chain with D41N, Q55R, M68L, Y100R
notes: Variant of PS557; also called V72M, Q55R, Y100R
B19: PS934 (designed binder)
chain: B15 chain with P62R
notes: Variant of PS557; also called N41D, V72M, L68M, P62R
B20: PS961 (designed binder)
chain: B15 chain with Q55R, E63S, Y100R
notes: Variant of PS557; also called N41D, V72M, Q55R, E63S, L68M, Y100R
B21: PS963 (designed binder)
chain: B15 chain with Q55R, E63A, M68L, Y100R
notes: Variant of PS557
B22: PS962 (designed binder)
chain: B15 chain with Q55R, P62Y, E63A, M68L, Y100R
notes: Variant of PS557
B23: PS960 (designed binder)
chain: B15 chain with Q55R, H60I, M68L
notes: Variant of PS557

target: T11, RA peptide (Octet assay of PS621 variants); assay: Octet (BLI), 30 C
T11 construct: X… with X = R
Source text: (§1) Peptides of the sequence RXKLDEESILKQK (SEQ ID NO: 1076) were also used to evaluate the penultimate residue effect.

| Octet response | Binder |
| --- | --- |
| 9.4 | B1 |
| 8.6 | B2 |
| 6.2 | B3 |
| 9.9 | B4 |
| 6.5 | B5 |
| 6.5 | B6 |
| 7.8 | B7 |
| 9.8 | B8 |
| 8.6 | B9 |

Target: T1, RL peptide (Octet assay of PS621 …)
Assay: Octet (BLI), 30 C
Source text: as §1

| Octet response | Binder |
| --- | --- |
| 11.3 | B1 |
| 9.6 | B2 |
| 8.4 | B3 |
| 11.7 | B4 |
| 7.5 | B5 |
| 7.7 | B6 |
| 8.1 | B7 |
| 10.6 | B8 |
| 10.4 | B9 |

Target: T2, RE peptide (Octet assay of PS621 …)
Assay: Octet (BLI), 30 C
Source text: as §1

| Octet response | Binder |
| --- | --- |
| 7.6 | B1 |
| 8.8 | B4 |
| 2.9 | B5 |
| 1.9 | B6 |
| 6.6 | B9 |

target: T12, RQ peptide (Octet assay of PS621 variants); assay: Octet (BLI), 30 C
T12 construct: RX… with X = Q
Source text: as §1

| Octet response | Binder |
| --- | --- |
| 9.7 | B1 |
| 9.5 | B4 |
| 5.9 | B5 |
| 4.7 | B6 |
| 9.3 | B9 |

Target: T3, RS peptide (Octet assay of PS621 …)
Assay: Octet (BLI), 30 C
Source text: as §1

| Octet response | Binder |
| --- | --- |
| 8.9 | B1 |
| 8.3 | B4 |
| 5.5 | B5 |
| 4.3 | B6 |
| 8.5 | B9 |

target: T13, RR peptide (Octet assay of PS621 variants); assay: Octet (BLI), 30 C
T13 construct: RX… with X = R
Source text: as §1

| Octet response | Binder |
| --- | --- |
| 8 | B1 |
| 5.9 | B4 |
| 4.4 | B5 |
| 2.8 | B6 |
| 7 | B9 |

target: T14, RF peptide (Octet assay of PS621 variants); assay: Octet (BLI), 30 C
T14 construct: RX… with X = F
Source text: as §1

| Octet response | Binder |
| --- | --- |
| 10.5 | B1 |
| 10.2 | B4 |
| 7.2 | B5 |
| 6 | B6 |
| 9.3 | B9 |

Target: T4, HA peptide (Octet assay of PS621 …)
Assay: Octet (BLI), 30 C

| Octet response | Binder |
| --- | --- |
| 3.4 | B1 |
| 0.7 | B2 |
| 1.7 | B4 |
| 0.2 | B5 |
| 0.6 | B7 |
| 1.8 | B8 |
| 2.5 | B9 |

Target: T5, KA peptide (Octet assay of PS621 …)
Assay: Octet (BLI), 30 C

| Octet response | Binder |
| --- | --- |
| 7.3 | B1 |
| 3.3 | B2 |
| 2.9 | B3 |
| 5.5 | B4 |
| 2.6 | B5 |
| 1.4 | B6 |
| 3.9 | B7 |
| 5 | B8 |
| 6.6 | B9 |

Target: T6, RA peptide (XAKLDEESILKQK-FITC, X = R)
Assay: fluorescence polarization titration, 20 C
Description: (§2) Binding affinity was measured by polarization using a labeled peptide. The polarization response and total intensity measurements were carried out at 20° C. on a microplate fluorometer with 480 nm excitation and 530 nm emission. […] Multiple analyses were performed at increasing recognizer concentration at a fixed concentration of a target peptide to obtain a titration curve. An equilibrium polarization response at each concentration was plotted and fit to calculate the KD.
(§3) Fluorescence polarization assays were performed with all candidates, and single point binding responses were measured at a fixed concentration of the binders (FIG. 13A). […] We carried out multiple polarization binding titration analysis at increasing concentration of binder protein, and the Kds were determined from the titration curves (FIG. 13B).

| Kd | Binder |
| --- | --- |
| 260 nM | B10 |
| 289 nM | B2 |
| 787 nM | B3 |
| 180 nM | B11 |
| 259 nM | B12 |
| 1550 nM | B6 |
| 298 nM | B7 |
| 271 nM | B8 |
| 638 nM | B9 |
| 152 nM | B13 |
| 165 nM | B14 |

Target: T7, HA peptide (XAKLDEESILKQK-FITC, X = H)
Assay: fluorescence polarization titration, 20 C
Description: as §2, §3

| Kd | Binder |
| --- | --- |
| 2850 nM | B10 |
| 11400 nM | B2 |
| 2660 nM | B11 |
| 3500 nM | B12 |
| 3830 nM | B7 |
| 6180 nM | B8 |
| 1920 nM | B13 |
| 3440 nM | B14 |

Target: T8, LA Peptide (fluorescence polarization)
Assay: fluorescence polarization, FITC peptide titrated with protein

| Kd | Binder |
| --- | --- |
| 7 nM | B15 |

target: VA Peptide (fluorescence polarization) (FITC on the C-terminal lysine); assay: as above

| Kd | Binder |
| --- | --- |
| 276 nM | B16 |
| 266 nM | B17 |
| 487 nM | B15 |

Target: T9, AA Peptide (fluorescence polarization), …
Assay: as above

| Kd | Binder |
| --- | --- |
| 8700 nM | B16 |
| 7590 nM | B17 |
| 5440 nM | B18 |
| 5330 nM | B19 |
| 15000 nM | B15 |
| 3300 nM | B20 |

Target: T10, MA Peptide (fluorescence polarization)
Assay: as above

| Kd | Binder |
| --- | --- |
| 805 nM | B17 |
| 395 nM | B18 |
| 325 nM | B19 |
| 746 nM | B15 |
| 143 nM | B20 |

target: T15, AA peptide (Octet assay of PS557 variants); assay: Octet (BLI), peptide on sensor, response after 200 s association
T15 construct: Peptide coated on the Octet sensor
Source text: (§4) In the high-throughput assay, Octet sensors are coated with the peptide of interest and dipped in buffer containing the purified protein. […] Studying the on and off-rate can also give insight into the mechanism of binding.

| Octet response | Binder |
| --- | --- |
| 4.06 nm | B21 |
| 3.76 nm | B22 |
| 1.68 nm | B23 |
| 4.87 nm | B20 |

target: T16, VA peptide (Octet assay of PS557 variants); assay: as above
T16 construct: Peptide coated on the Octet sensor
Source text: as §4

| Octet response | Binder |
| --- | --- |
| 10.4 nm | B21 |
| 10.7 nm | B22 |
| 9.29 nm | B23 |
| 11.3 nm | B20 |

target: T17, LA peptide (Octet assay of PS557 variants); assay: as above
T17 construct: Peptide coated on the Octet sensor
Source text: as §4

| Octet response | Binder |
| --- | --- |
| 9.65 nm | B21 |
| 10.5 nm | B22 |
| 10.5 nm | B23 |
| 11.8 nm | B20 |

target: T18, MA peptide (Octet assay of PS557 variants); assay: as above
T18 construct: Peptide coated on the Octet sensor
Source text: as §4

| Octet response | Binder |
| --- | --- |
| 8.4 nm | B21 |
| 8.37 nm | B22 |
| 6.86 nm | B23 |
| 9.26 nm | B20 |

target: T19, IA peptide (Octet assay of PS557 variants); assay: as above
T19 construct: Peptide coated on the Octet sensor
Source text: as §4

| Octet response | Binder |
| --- | --- |
| 10.2 nm | B21 |
| 10.7 nm | B22 |
| 9.98 nm | B23 |
| 11.5 nm | B20 |

target: T20, FA peptide (Octet assay of PS557 variants); assay: as above
T20 construct: Peptide coated on the Octet sensor
Source text: as §4

| Octet response | Binder |
| --- | --- |
| 2.25 nm | B21 |
| 2.57 nm | B22 |
| 0.0851 nm | B23 |
| 2.05 nm | B20 |
